The record followed here is patent US8440430, “Modified dicer polypeptide and methods of use thereof” (The Regents of the University of California).

By Kd is commonly meant the free concentration of one partner at which half of the binding sites on the other are occupied at equilibrium, for simple one-to-one binding.

The target in data set [1] is T1, hWalker human Dicer (K70A) (Homo sapiens, UniProt Q9UPY3 SEQ:1-1922).
T1 chain: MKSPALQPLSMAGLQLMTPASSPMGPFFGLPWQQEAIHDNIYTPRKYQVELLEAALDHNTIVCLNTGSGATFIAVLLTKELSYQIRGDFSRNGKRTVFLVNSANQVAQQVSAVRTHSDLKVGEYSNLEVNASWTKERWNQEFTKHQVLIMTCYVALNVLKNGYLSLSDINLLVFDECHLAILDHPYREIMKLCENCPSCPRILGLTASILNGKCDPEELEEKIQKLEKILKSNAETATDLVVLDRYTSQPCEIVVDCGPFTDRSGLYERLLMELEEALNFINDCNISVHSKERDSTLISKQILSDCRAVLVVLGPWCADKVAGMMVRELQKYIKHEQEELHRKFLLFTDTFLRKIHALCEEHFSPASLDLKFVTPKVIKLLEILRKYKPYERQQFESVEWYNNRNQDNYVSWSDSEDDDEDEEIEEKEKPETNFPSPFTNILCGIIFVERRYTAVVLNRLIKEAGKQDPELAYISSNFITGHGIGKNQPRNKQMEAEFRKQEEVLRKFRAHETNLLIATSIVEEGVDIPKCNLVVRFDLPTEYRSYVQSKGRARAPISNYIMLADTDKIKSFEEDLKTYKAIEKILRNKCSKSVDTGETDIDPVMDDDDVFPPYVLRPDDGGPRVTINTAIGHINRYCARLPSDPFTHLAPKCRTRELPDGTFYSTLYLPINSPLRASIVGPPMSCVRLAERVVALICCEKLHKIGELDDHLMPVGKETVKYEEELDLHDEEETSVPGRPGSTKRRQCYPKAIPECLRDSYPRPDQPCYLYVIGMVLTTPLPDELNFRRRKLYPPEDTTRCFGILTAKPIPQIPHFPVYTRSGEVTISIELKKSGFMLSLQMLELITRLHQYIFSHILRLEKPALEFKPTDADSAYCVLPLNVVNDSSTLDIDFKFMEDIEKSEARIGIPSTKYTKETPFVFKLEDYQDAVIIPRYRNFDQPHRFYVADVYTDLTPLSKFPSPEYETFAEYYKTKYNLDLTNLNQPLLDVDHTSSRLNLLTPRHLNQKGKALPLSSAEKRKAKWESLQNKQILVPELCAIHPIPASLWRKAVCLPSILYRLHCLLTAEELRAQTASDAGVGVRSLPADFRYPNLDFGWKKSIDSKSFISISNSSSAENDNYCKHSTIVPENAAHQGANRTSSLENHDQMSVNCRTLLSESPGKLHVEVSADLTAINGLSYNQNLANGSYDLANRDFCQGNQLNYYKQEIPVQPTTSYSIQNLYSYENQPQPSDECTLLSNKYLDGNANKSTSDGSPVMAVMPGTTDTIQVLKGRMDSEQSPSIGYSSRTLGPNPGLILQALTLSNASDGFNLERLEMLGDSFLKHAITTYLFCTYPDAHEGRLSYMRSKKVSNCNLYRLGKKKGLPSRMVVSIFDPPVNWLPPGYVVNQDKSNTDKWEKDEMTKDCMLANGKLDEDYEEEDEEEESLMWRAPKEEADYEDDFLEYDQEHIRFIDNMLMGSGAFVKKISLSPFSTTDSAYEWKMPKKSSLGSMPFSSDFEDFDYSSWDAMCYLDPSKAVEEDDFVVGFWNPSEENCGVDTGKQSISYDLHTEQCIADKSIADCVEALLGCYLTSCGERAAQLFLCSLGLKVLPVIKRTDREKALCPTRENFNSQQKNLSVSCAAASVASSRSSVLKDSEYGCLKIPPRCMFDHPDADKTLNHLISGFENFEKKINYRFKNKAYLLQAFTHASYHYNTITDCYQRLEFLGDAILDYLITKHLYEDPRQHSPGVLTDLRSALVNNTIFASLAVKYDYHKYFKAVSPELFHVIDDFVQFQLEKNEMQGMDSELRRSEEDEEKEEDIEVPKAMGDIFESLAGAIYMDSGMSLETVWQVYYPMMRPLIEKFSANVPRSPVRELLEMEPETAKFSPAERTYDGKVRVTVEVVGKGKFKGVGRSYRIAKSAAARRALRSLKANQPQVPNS
The data set is described as follows: filter; within three-fold of full-length; 5 mM EDTA; exact Kd only in figure. The conditions noted are these: tags: N-terminal His6 removed by site-specific protease, baculovirus/Sf9. As for the experimental part:
After dried, the bound (on Protran) or free (on Nytran) RNAs were detected and quantified with Phosphoimager (GE Healthcare). Percentage of bound RNAs was calculated by 100 multiplied by the ratio of radioactivity (volumes) detected on the Protran membrane over the total input volumes (radioactivity). The bound RNAs (%) (Y-axle) were plotted against protein concentrations (X-axle). K_d was determined by global fitting to the equation of kobsd = (kmax ×[Dicer])(K_{1/2} + [Dicer])^-1, here $kobsd$ is the observed rate constant at a particular protein concentration, $kmax$ is the maximal rate constant with saturating protein, and K_{1/2} (or K_d) is the protein concentration that provides half the maximal rate. Curve fitting was conducted with KleidaGraph (Synery Software).
RNA. […] These values are similar to those measured previously (Provost et al, 2002; Vermeulen et al, 2005). […] The protein lacking both the DExD/H-box domain and the dsRBD (2DD) bound ~3-4 fold more weakly to either substrate relative to full-length Dicer (FIG. 3A-C). It is possible that this severely truncated protein is generally destabilized, or that the DExD/H-box domain plays a small but measurable role in substrate binding.

Data set [2] deals with wild-type human Dicer (flhDcr) (Homo sapiens, UniProt Q9UPY3 SEQ:1-1922). The data set is described as follows: filter; 5 mM EDTA, no free Mg2+, 25 mM NaCl, pH 7.5, room temperature. The note with it: tags: N-terminal His6 removed by site-specific protease, baculovirus/Sf9. As for the experimental part:
A serial dilution of proteins were incubated in a buffer containing 20 mM Tris-Cl (pH 7.5), 25 mM NaCl, 5 mM EDTA, 1 mM dithiothreitol (DTT), 1% glycerol and ~0.5-1 nM (1500 c.p.m.) of ^32P-labeled duplex RNA substrate (one strand was labeled) at room temperature for 60 min […] After this incubation, 25 µl of each reaction were used for dot-blotting, which was conducted in a dot-blot apparatus equipped with 3 membranes of Tuffryn, Protran and Nytran (from top to bottom). After dried, the bound (on Protran) or free (on Nytran) RNAs were detected and quantified with Phosphoimager (GE Healthcare). Percentage of bound RNAs was calculated by 100 multiplied by the ratio of radioactivity (volumes) detected on the Protran membrane over the total input volumes (radioactivity). The bound RNAs (%) (Y-axle) were plotted against protein concentrations (X-axle). K_d was determined by global fitting to the equation of kobsd = (kmax ×[Dicer])(K_{1/2} + [Dicer])^-1, here $kobsd$ is the observed rate constant at a particular protein concentration, $kmax$ is the maximal rate constant with saturating protein, and K_{1/2} (or K_d) is the protein concentration that provides half the maximal rate. Curve fitting was conducted with KleidaGraph (Synery Software).
RNA. […] These values are similar to those measured previously (Provost et al, 2002; Vermeulen et al, 2005).

The mark [3] stands for this setting: label: 5'-32P on one strand, perfect duplex with 2-nt 3' overhangs on both ends.

B1: pre-hlet-7 hairpin RNA (ssRNA)
RNA: UGAGGUAGUAGGUUGUAUAGUUUUAGGGUCACACCCACCACUGGGAGAUAACUAUACAAUCUACUGUCUUACC
Consider B1, for which, in data set [1] (label: 5'-32P, hairpin), the “Kd relative to full-length Dicer (fold)” value is ≤ 3 fold of full-length Kd (30 nM). The same molecule showed a Kd in data set [2] (label: 5'-32P, hairpin) of 30 nM.

B2: 37ab duplex RNA (dsRNA)
RNA 1: UGAGGUAGUAGGUUGUAUAGUUUGAAAGUUCACGAUU
RNA 2: UCGUGAACUUUCAAACUAUACAACCUACUACCUCAUU
Regarding B2, the “Kd relative to full-length Dicer (fold)” value in data set [1] (setting [3]) was ≤ 3 fold of full-length Kd (75 nM). The same molecule registered a Kd in data set [2] (setting [3]) of 75 nM.
